Test results taken from patent US20170056327A1 (The Methodist Hospital, priority 2015, published 2017).

Tests used:
[1] = tested on: BRAF, phosphor-BRAF, MEK, phosphor-MEK, ERK, phosphor-ERK in A375 melanoma cells; assay: Western blot of BRAF pathway proteins after treatment; type: cell-based, human; settings: delivered by composite with single cargo; siRNA 100 nM, docetaxel 100 nM
Procedure: The size and zeta potential of the particles were measured by the Zetasizer Nano (Malvern Instruments). The SEM characterization was shown on an ultra-high resolution scanning electron microscope (SEM 230, NovaNano, Hillsboro, Oreg., USA). Western blots were performed using standard protocols on 4%-15% Bio-Rad Mini-Protean TGX Precast Gels (Bio-Rad, Hercules, Calif., USA).

[2] = tested on: T1, MMP2 substrate peptide AGFSGPLGMWSAGSFG (SEQ ID NO:1)
T1 sequence: AGFSGPLGMWSAGSFG

[3] = molecular target: MMP2 substrate peptide … (SEQ ID NO:1); assay: cell-based or functional assay

Sequence of matrix metalloproteinase-2 (MMP-2) enzyme (P08253 110-660): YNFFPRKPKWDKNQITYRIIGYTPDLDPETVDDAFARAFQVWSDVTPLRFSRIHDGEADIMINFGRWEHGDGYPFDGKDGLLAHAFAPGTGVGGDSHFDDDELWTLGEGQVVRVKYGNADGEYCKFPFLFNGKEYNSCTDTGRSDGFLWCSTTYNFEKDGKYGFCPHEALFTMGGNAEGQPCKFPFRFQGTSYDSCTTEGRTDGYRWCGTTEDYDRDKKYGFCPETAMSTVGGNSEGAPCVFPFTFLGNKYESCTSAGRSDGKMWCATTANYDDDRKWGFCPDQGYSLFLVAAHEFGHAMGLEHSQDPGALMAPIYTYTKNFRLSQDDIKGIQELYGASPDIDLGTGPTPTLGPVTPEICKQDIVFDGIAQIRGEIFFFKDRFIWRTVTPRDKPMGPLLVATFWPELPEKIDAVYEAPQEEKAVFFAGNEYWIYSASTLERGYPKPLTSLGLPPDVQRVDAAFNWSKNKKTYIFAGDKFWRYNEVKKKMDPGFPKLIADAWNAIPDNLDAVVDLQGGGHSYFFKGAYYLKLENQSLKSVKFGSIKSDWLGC

Compound | effect on protein expression of BRAF pathway [1] | coumarin 6 released into buffer within 6 hrs from MSV/Peptide NPs with MMP2 enzyme (2 ug/mL); without MMP2 cleavage only about 40% was released [2] | cellular uptake in A375 cells of stimuli-release particles (MSV/Peptide NPs) relative to non-stimuli-release particles (MSV/NPs), medium with 2 ug/mL MMP2, 6-hrs' incubation [3] | cellular uptake in A375 cells of stimuli-release particles (MSV/Peptide NPs) relative to non-stimuli-release particles (MSV/NPs), medium with 2 ug/mL MMP2, 24-hrs' incubation [3]
5′-GCUACAGAGAAAUCUCGAU-3′ (listed as RNA, chemistry not given here) [BRAF siRNA] | knockdown BRAF expression and its related phosphor-proteins downstream | – | – | –
CC(=O)O[C@@]12CO[C@@H]1C[C@H](O)[C@@]1(C)C(=O)[C@H](O)C3=C(C)[C@@H](OC(=O)[C@H](O)[C@@H](NC(=O)OC(C)(C)C)c4ccccc4)C[C@@](O)([C@@H](OC(=O)c4ccccc4)[C@H]21)C3(C)C [docetaxel] | decreased the expression of BRAF, phosphor-BRAF and phosphor-MEK, but increased the expression of phosphor-ERK | – | – | –
matrix metalloproteinase-2 (MMP-2) enzyme | – | about 80% of the coumarin 6 was released | 1.2 fold | 1.5 fold
